Results taken from the supplement of paper PMC9170038.

Tested on: MS2 coat protein
Experiment: apparent KD of MS2 coat protein; designed switch direction (-1 OFF switch, 1 ON switch): -1; higher = weaker reporter binding
Method in brief: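 On Illumina chips, designed RNA switches with common flanks were made by stalled E. coli RNA polymerase. Titrations with SNAP-549-labelled MS2 coat protein, doubling from 0.7 or 1.5 nM to 3 µM, were done with no input, with 200 uM small-molecule ligand, or with an oligonucleotide input. Apparent KD is the median per design over clusters, from curve fits of normalised cluster fluorescence.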

[1] = input ligand: microRNA oligo, concentration not stated
[2] = Eterna round: R95, input ligand: microRNA oligo, concentration not stated
[3] = Eterna round: R95, input ligand: FMN 200 uM
[4] = Eterna round: R95, input ligand: none

Sequence | apparent KD of MS2 coat protein (input ligand: FMN 200 uM) [nM] | apparent KD of MS2 coat protein (input ligand: none) [nM] | apparent KD of MS2 coat protein [1] [nM] | apparent KD of MS2 coat protein [2] [nM] | apparent KD of MS2 coat protein [3] [nM] | apparent KD of MS2 coat protein [4] [nM]
GCUAGUCAUGUCAGGAUAUGCUGUUCCUUGGAACAGCAGAAGGGACAUGAGGAUCACCCAUGUGCCUAACUAGC [Mat - Exclusion 4 - JL Mod - D12] (Eterna round: R97, puzzle: Brourd's mod of Exclusion 4) | 558 | 43.8 |  |  |  | 
UGUUGUCGCGUAGGAUAUGAGGAUCACCCAUAUAAAGGAUAUGAAAAGAAGGUUCUGAGGAUUACCCAGAAGGACGGGACAACU [pwkr exNG2 2xF5 2xFMN.17] (Eterna round: R96, puzzle: Exclusion NG 2) | 207 | 48.7 | 35 |  |  | 
GCGUUUUGGUGAGGAUAUCGGCCCUAAACCGGGCAACAUGAGGAUCACCCAUGUACGUGAUCCUGCGAGAAGGCACCGAUUAUA [Digeerle] (Eterna round: R96, puzzle: Exclusion NG 2) | 122 | 123 | 104 |  |  | 
CUUUUGUGAGGAUAUCAGUAGUAUAAAAAUAAAAUUACUACUGAGAAGGCACAUGAGGAUCACCCAUGUUCCUC [salish99_ex4_r3_017] (puzzle: Exclusion 4) |  |  |  | 37.4 |  | 
AAUAGCAAGUAGAUCCUAAACAUGAGGAUCACCCAUGUGCUCGUCUUGUAAAGUACUAUCACGAAAGUGAUAGUACA [Sensor 3, v1 - 57] (puzzle: Sensor v3, turn-off variant 1) |  |  |  | 300 | 151 | 233
ACCAUGUAAGGAUAUGGUGGCUGUGAACAGGCCUGAUAAAUCUAGAAGGUACAUGAGGAUCACCCAUGUGAUGA [Eternabot (L2) Solution 84] (Eterna round: R97, puzzle: Exclusion 4) | 54 | 32.7 |  |  |  | 
ACAAGCUUUUAGAUUUUCAACAUGAGGAUCACCCAUGUUCGUCUUAGGCGAGUGCGAGUGCGGUGUACUCGUAUUAG [JL TOV1 3.85 sellena mod] (Eterna round: R97, puzzle: Sensor, turn-off variant 1) | 22.2 | 21.9 |  |  |  | 
GGAUCGAGUGUGAGGAUAUACCACUGGAUACAGUGGUAGAAGGCACAUGAGGAUCACCCAUGUCUCUACGAUCC [Fiskers BMX 4 - 44] (puzzle: Brourd's mod of Exclusion 4) |  |  |  | 16.3 |  | 
AUGUGACAUGAGGAUCACCCAUGUCAGGAUAUUUCCAAAAUAAAAUAAAACCGCGUGGAAAGAAGGGACGUGGU [EX1 A.8] (Eterna round: R97, puzzle: Exclusion 1) | 23.4 | 21.7 |  |  |  | 
AGAUAGUGGUGAGGAUAUCAGAAUAGAAAGAAAUGAGAAGGCACACAUGAGGAUCACCCAUGUGAGGUCUUGAGACUACAUGGU [Prohibition 40 - Jieux - Exclusion NG 1] (Eterna round: R96, puzzle: Exclusion NG 1) | 21.2 | 17.3 | 12.5 |  |  | 
CCAUAGGGAGGAUAUCCAAUAUAUGACAUGAGGAUCACCCAUGUUUCCACUCGUACCUCCGGAGAAGGCCCAUACC [Ex5 #9] (Eterna round: R97, puzzle: Exclusion 5) | 22 | 27 |  |  |  | 
AGCAAGCUUUUAAGAUCCUACAUGAGGAUCACCCAUGUGCUCGUCUUGUAACGUACUGUGACGAAAGUCACGGUACG [JL TOV1 3.31] (Eterna round: R97, puzzle: Sensor, turn-off variant 1) | 374 | 506 |  |  |  | 
AAGUAUCAUGUAGGAUAUGCUAACCGAACGUUAGCAGAAGGACAUGAGGAUCACCCAUGUUCUCAUCUGUAAGAACAGAUGUCU [Ex NG1 #6] (Eterna round: R96, puzzle: Exclusion NG 1) | 27.9 | 15.5 | 12.6 |  |  | 
AACGUACGUCGAGGAUAUGACGAGAAAUAUGAGUCAGAAGGCGACUGGUACAUGAGGAUCACCCAUGUUGCGACCAUGUGGCUU [Eternabot solution 23] (Eterna round: R96, puzzle: Exclusion NG 1) | 53.7 | 17.9 | 13.4 |  |  | 
GGUUGGCGAGGAUAUACAUGAGGAUCACCCAUGUGAGAGAAAAAAGUGAGGAAGAACAGUAGAAGGCGCUGACG [salish99_ex3_r3_036] (puzzle: Exclusion 3) |  |  |  | 74.2 | 162 | 106
UAACCUAUUGUCAGGAUAUCUACGUGGUAUCAUGAGGAGAAGGGACAUGAGGAUCACCCAUGUGGAAGGGAAAA [Beques] (puzzle: Brourd's mod of Exclusion 4) |  |  |  | 31.1 | 60.2 | 48.3
UUUACAAGCUUUUGAUCCCACAUGAGGAUCACCCAUGUUGCUGCCGUGAGGUAGCUUUUAACAAAUGCUCGUCUUAU [JL TOV1 3.37] (Eterna round: R97, puzzle: Sensor, turn-off variant 1) | 590 | 690 |  |  |  | 
GAUUAUGCGAGCUUUAGGGACAUGAGGAUCACCCAUGUUCGUCUUGUUGAUCUAGGUACGCUAACAUACCUAAAUCU [JMF 6] (puzzle: Sensor v3, turn-off variant 1) |  |  |  | 28.3 | 19.7 | 20.2
UAAUGUAUAUAGGAUAUCUAGCUGGAAACAGCUAGAGAAGGAUGUACAUGAGGAUCACCCAUGUAAAUCAAUAG [Ex6/9-A2] (Eterna round: R97, puzzle: Exclusion 6) | 48.3 | 21.8 |  |  |  | 
GUGAAACAUGAGGAUCACCCAUGUGAGGAUAUGUUUUAGUAAUGAUGAAAGUAAAUCUACAGAAGGCACAAUGG [Mat - Mod of JL D70] (puzzle: Exclusion 1) |  |  |  | 77.9 |  | 
UAUUAGUGAGGAUAUGAGUCGUAGAACAAUAGUACUACGUCUCAGAAGGUACAUGAGGAUCACCCAUGUUCCUU [Fiskers Ex 4 Super Stable 44 mod 34] (puzzle: Exclusion 4) |  |  |  | 12 |  | 
ACAUGAGGAUCACCCAUGUCCGGCUGGUCUGUUCCGGUUGUCGAGGAUAUAGUUCGGUGUUCGCGCUAGAAGGUGGGAGCUGGA [Aenatbe mod 54] (Eterna round: R96, puzzle: Exclusion NG 3) | 186 | 136 | 103 |  |  | 
AUACCACGAGGAUAUCGACUAUACCACAUGAGGAUCACCCAUGUUAUCCAUGUUUCGUUUCGAGAAGGCGUGGGUU [JR_E5_Sub073] (puzzle: Exclusion 5) |  |  |  | 32.3 |  | 
GGAGGAAGAGAGGAUAUGCGCUCAAGGAGAAAAGCAGAAGGUUCAACAUGAGGAUCACCCAUGUAUGAUCCUCA [AK-MS2ROC-r4-exclusion6-4] (Eterna round: R97, puzzle: Exclusion 6) | 342 | 203 |  |  |  | 
UUUAGUUCAGGAUAUGAUGAAUUAAACAUGAGGAUCACCCAUGUAGAUCCUGAAUUAACAUCAGAAGGGAAUAUUU [JL-ex5-4.47 Brourd mod] (Eterna round: R97, puzzle: Exclusion 5) | 15.1 | 13.7 |  |  |  | 
AGAGUGCUGCGAGGAUAUACAUGAGGAUCACCCAUGUUUUCGUGUGAGGCUUUGCCUCACACGAAGUAGAAGGCGCAGUACUCA [Mat - Exclusion NG 2 - Mod of JL - D32] (Eterna round: R96, puzzle: Exclusion NG 2) | 7.28 | 10.9 | 9.46 |  |  | 
UGUUGUUACGCAGGAUAUGAGGAUCACCCAUAGAAGGAUAACGAAAGUGAAGGUCUGAGGAUUACCCAGAAGGGCGGGUUAACA [pwkr exNG2 2xF5 2xFMN.2] (Eterna round: R96, puzzle: Exclusion NG 2) | 294 | 92 | 74.2 |  |  | 
GUAAUUAAUGUAGGAUAUGCAAGGCGAACCUAAGCAGAAGGACAUGAGGAUCACCCAUGUAUUGCGGUCUGCGUUCAGUUCGCU [salish99_ExNG1_r4_011] (Eterna round: R96, puzzle: Exclusion NG 1) | 9.41 | 10.2 | 6.39 |  |  | 
AGCCCUGCAGGAUAUGUCGAGGAUAACAUGAGGAUCACCCAUGUGACCGAUUGUUAGACUGCAGAAGGGCAUGGGA [salish99_ex5_r4_304] (Eterna round: R97, puzzle: Exclusion 5) | 278 | 70.6 |  |  |  | 
CAGUACAGAGGAUAUACAUGAGGAUCACCCAUGUGUUUCAGGUACGAAAGUACCGAAUGUAGAAGGCUGUACUG [jl-ex3-4.25 salish99 mod] (Eterna round: R97, puzzle: Exclusion 3) | 244 | 25.6 |  |  |  | 
